{"source": "paper PMC10920428", "about": "“Expression, purification, and characterization of transmembrane protein homogentisate solanesyltransferase” (Applied Microbiology and Biotechnology, 2024)", "proteins": {"B1": {"name": "homogentisate solanesyltransferase (CrHST) (Chlamydomonas reinhardtii) (protein)", "chain": "SAAVPAPLPNGGNDESFAQKLANFPNAFWKFLRPHTIRGTILGTTAVTAKVLMENPGCIDWALLPKALLGLVALLCGNGYIVGINQIYDVDIDVVNKPFLPVASGELSPALAWGLCLSLAAAGAGIVAANFGNLITSLYTFGLFLGTVYSVPPLRLKQYAVPAFMIIATVRGFLLNFGVYSATRAALGLPFEWSPAVSFITVFVTLFATVIAITKDLPDVEGDQANNISTFATRMGVRNVALLAIGLLMANYLGAIALALTYSTAFNVPLMAGAHAILAATLALRTLKLHAASYSREAVASFYRWIWNLFYAEYALLPFL"}}, "key": {"[1]": {"substrate": "CC(C)=CCC/C(C)=C/CC/C(C)=C/CO[P@@](=O)(O)OP(=O)(O)O", "experiment": "cells, lysate or membranes", "conditions": "Mg2+ ([…] magnesium chloride in assay)"}, "[2]": {"substrate": "O=C(O)Cc1cc(O)ccc1O", "experiment": "cells, lysate or membranes", "conditions": "Mg2+ ([…] magnesium chloride in assay)"}}}
{"protein": "B1", "values": [{"measurement": "Km", "setting": "[1]", "result": "22.76 ± 1.70", "unit": "µM"}, {"measurement": "Km", "setting": "[2]", "result": "48.54 ± 3.89", "unit": "µM"}]}
